B1: 223C4: murine anti-c-Met monoclonal antibody, IgG1 kappa; heavy chain SEQ ID No. 20, light chain SEQ ID No. 23 (antibody, V domains shown)
VH: EVLLQQSGPELVKPGASVKIPCKASGYTFTDYNMDWVKQSHGMSLEWIGDINPNNGGTIFNQKFKGKATLTVDKSSSTAYMELRSLTSEDTAVYYCARGRYVGYYYAMDYWGQGTSVTVSS
VL: DIQMTQSPASLSVSVGETVTITCRASENIYSNLAWYQQKQGKSPQLLVYAATNLVDGVPSRFSGSGSGTQYSLKINSLQSEDFGSYYCQHFWGPPYTFGGGTKLEIK
modifications: mus musculus
B2: 11E1: murine anti-c-Met monoclonal antibody, IgG1 kappa; heavy chain SEQ ID No. 62, light chain SEQ ID No. 63 (antibody, V domains shown)
VH: QVQLQQSGAELAKPGASVKMSCKASGYTFTSYWMNWVKQRPGQGLEWIGYINPTTGSTDYNQKLKDKATLTADKSSNTAYMQLSSLTSEDSAVYYCAIGGYGSWFAYWGQGTLVTVSA
VL: QIVLTQSPAIMSASPGEKVTLTCSASSSVSSTYLYWYQQKPGSSPKLWIYTTSILASGVPARFSGSGSGTSYSLTISSMETEDAASYFCHQWSSYPFTFGSGTKLDIK
modifications: mus musculus
B3: 224G11: murine anti-c-Met monoclonal antibody, IgG1 kappa; heavy chain SEQ ID No. 18, light chain SEQ ID No. 21 (antibody, V domains shown)
VH: EVQLQQSGPELVKPGASVKISCKTSGYIFTAYTMHWVRQSLGESLDWIGGIKPNNGLANYNQKFKGKATLTVDKSSSTAYMDLRSLTSEDSAVYYCARSEITTEFDYWGQGTALTVSS
VL: DIVLTQSPASLAVSLGQRATISCRASESVDSYANSFMHWYQQKPGQPPKLLIYRASNLESGIPARFSGSGSRTDFTLTINPVEADDVATYYCQQSKEDPLTFGSGTKLEMK
modifications: mus musculus

Key:
[1] = test system: U-87MG, human glioblastoma cells; experiment: U87-MG spheroid growth; assay type: cell-based; details: antibody 10 μg/ml
Description: To evaluate the ability of anti-c-Met antibodies to inhibit in vitro tumor growth, in a model closer to an in vivo situation, U-87MG, human glioblastoma cells (ATCC #HTB-14) spheroids were generated. Cells grown as a monolayer were detached with trypsine-EDTA and resuspended into complete cell culture media (DMEM) supplemented with 10% FBS. Spheroids were initiated by inoculating 625 cells into single wells of round bottom, 96 plates in DMEM-10% FCS. To prohibit cell adhesion to a substratum, the plates were pre-coated with polyHEMA in 95% ethanol and air dried at room temperature. The plates were incubated under standard cell culture conditions at 37° C., 5% CO2 in humidified incubators. Purified monoclonal antibodies (10 μg/ml) were added after 3 and 7 days of spheroid culture. HGF (400 ng/ml) was added once after 4 days of culture. Spheroids were kept in culture for at least 10 days. Then, spheroid growth was monitored by measuring the area of spheroids using automeasure module of axiovision software. Area was expressed in μm^2. 8-16 spheroids were evaluated for each condition.
As already described in Example 9 for other Mabs, we evaluate the ability of 224G11 Mab to inhibit in vitro tumor growth in the U87-MG spheroid model. For that purpose, U87-MG cells grown as a monolayer were detached with trypsine-EDTA and resuspended into complete cell culture media. Spheroids were initiated by inoculating 625 cells into single wells of round bottom, 96 plates in DMEM-2.5% FCS. To prohibit cell adhesion to a substratum, the plates were pre-coated with polyHEMA in 95% ethanol and air dried at room temperature. The plates were incubated under standard cell culture conditions at 37° C., 5% CO2 in humidified incubators. Purified monoclonal antibodies (10 μg/ml) were added after 4 and 10 days of spheroid culture. Spheroids were kept in culture for 17 days. Then, spheroid growth was monitored by measuring the area of spheroids using automeasure module of axiovision software. Area was expressed in μm^2. 8-16 spheroids were evaluated for each condition. Spheroid size was measured before addition of antibodies, after 10 days of culture and after 17 days of culture.

A549 cells = experiment: Matrigel invasion assay with A549 cells; assay type: cell-based; details: A549, Mab 10 μg/ml, basal (no HGF)
Description: To evaluate the inhibiting effect of the anti-c-Met antibodies on the invasion process, A549 cells were plated in the upper chamber of BD BioCoat™ Matrigel™ invasion chambers (6.5 mm diameter wells with 8-μm pre size polycarbonate membranes). A459 cells were starved 24 hours before performing the invasion assay. Then 500 000 A549 cells were plated in chemotaxis buffer (DMEM medium, 0.1% BSA, 12 mM Hepes) in the upper well of each chamber, upon the Matrigel coating either with or without the antibody to be tested (final Mab concentration 10 μg/ml). After 1 hour incubation of the plates at 37° C. with 5% CO2, the lower chambers were filled with either growth medium containing 400 ng/ml of rhHGF or with growth medium alone. The chambers were incubated for 48 additional hours at 37° C. with 5% CO2. At the end of this incubation time, cells that remained on upper surface of the filter were gently removed with a cotton swab, cells that migrated to the lower surface of the filter were lysed, stained with CyQuant GR dye buffer (Invitrogen) and counted using a fluorescence reader Berthold Mithras LB940. All conditions were tested as triplicates.

BxPC3 cells = experiment: In vitro inhibition of BxPC3 proliferation ([3H]thymidine incorporation); assay type: cell-based; details: BxPC3, in absence of ligand, antibody alone
Description: For that purpose 50 000 BxPC3 cells were plated in 96 well plates in RPMI medium, 2 mM L. Glutamine, without SVF. […] After 3 days, cells were pulsed with 0.5 μCi of [^3H]thymidine for 16 hours. The magnitude of [^3H]thymidine incorporated into trichloroacetic acid-insoluble DNA was quantified by liquid scintillation counting. Results were expressed as raw data to really evaluate the intrinsic agonistic effect of each Mab (FIGS. 2A and 2B).

SEMA domain = molecular target: T1, SEMA domain (Homo sapiens, UniProt P08581); experiment: ELISA recognition of recombinant SEMA domain; assay type: binding
T1 construct: the recombinant c-Met-Fc protein and the recombinant SEMA domain
T1 sequence (P08581 27-515 limits assumed): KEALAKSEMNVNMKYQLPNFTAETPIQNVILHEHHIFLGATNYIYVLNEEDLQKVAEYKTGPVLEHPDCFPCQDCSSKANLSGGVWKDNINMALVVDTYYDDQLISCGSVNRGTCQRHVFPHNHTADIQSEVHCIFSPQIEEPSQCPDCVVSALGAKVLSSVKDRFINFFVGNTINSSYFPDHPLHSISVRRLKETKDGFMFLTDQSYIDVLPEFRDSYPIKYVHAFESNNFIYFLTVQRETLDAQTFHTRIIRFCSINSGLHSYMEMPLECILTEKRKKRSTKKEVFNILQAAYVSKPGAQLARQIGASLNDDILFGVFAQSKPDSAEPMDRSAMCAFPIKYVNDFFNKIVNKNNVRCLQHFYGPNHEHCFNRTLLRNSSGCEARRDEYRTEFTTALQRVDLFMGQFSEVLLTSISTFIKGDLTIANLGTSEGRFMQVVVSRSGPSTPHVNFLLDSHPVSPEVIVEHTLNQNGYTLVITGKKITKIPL
Description: To characterize the pattern of recognition of the 3 selected antibodies, 3 ELISA have been set up with the recombinant c-Met protein, its monomeric fragment (obtained by cleavage of the recombinant c-Met-Fc protein and the recombinant SEMA domain.
To perform these ELISA the human dimeric c-Met protein (R&D sytems, cat#358MT) is coated at the concentration of 0.7 μg/ml in PBS overnight at 4° C. After saturation of the plates (Costar #3690) with a 0.5% gelatin solution 2 hours at 37° C., hybridoma supernatants are incubated 1 hour at 37° C. Once rinsed with PBS, the anti-mouse HRP-antibody (Jackson ImmunoResearch, catalog #115-035-164) is added to each well at a 1/5000 dilution in ELISA buffer (0.1% gelatin/0.05% Tween 20 in PBS) and the plates incubated for 1 hour at 37° C. […] The reaction is left to occur for 5 min at room temperature. The reaction is stopped by the addition of 50 μl/well of a 1 M H2SO4 solution and read on a plate reader at 450 nm. The same kind of protocol was performed on monomeric c-Met and SEMA domain but in that cases proteins were coated at 5 and 3 μg/ml respectively.

[2] = Example 9: DMEM-10% FCS, in presence and in absence of HGF 400 ng/ml
[3] = Example 23: DMEM-2.5% FCS, 10 or 17 days of culture

| Molecule | effect on spheroid growth [1, 2] | agonist effect on invasion, added alone (A549 cells) | agonist activity on cell proliferation (BxPC3 cells) | binding to SEMA domain (SEMA domain) | effect on spheroid growth [1, 3] |
| --- | --- | --- | --- | --- | --- |
| B1 | reduced significantly | No agonist effect | without any agonist activity | did not bind | – |
| B2 | reduced significantly | No agonist effect | without any agonist activity | able to bind | markedly inhibited |
| B3 | – | No agonist effect | without any agonist activity | did not bind | markedly inhibited |
